Results as given in paper PMC5884726 (Structure (London, England : 1993), 2018).

Biological target: (UreABC)3 urease apoprotein (Klebsiella aerogenes, UniProt P18316 1-100; P18315 1-106; P18314 1-567)
Assay: native MS

Chain of (UreABC)3 urease apoprotein (P18316 whole entry, chain 1 of 3): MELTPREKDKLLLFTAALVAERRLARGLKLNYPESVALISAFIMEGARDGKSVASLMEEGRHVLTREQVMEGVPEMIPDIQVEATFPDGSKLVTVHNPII
Chain of (UreABC)3 urease apoprotein (P18315 whole entry, chain 2 of 3): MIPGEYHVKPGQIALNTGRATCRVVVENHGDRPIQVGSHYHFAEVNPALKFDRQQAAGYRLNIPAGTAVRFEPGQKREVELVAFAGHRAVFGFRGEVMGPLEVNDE
Chain of (UreABC)3 urease apoprotein (P18314 whole entry, chain 3 of 3): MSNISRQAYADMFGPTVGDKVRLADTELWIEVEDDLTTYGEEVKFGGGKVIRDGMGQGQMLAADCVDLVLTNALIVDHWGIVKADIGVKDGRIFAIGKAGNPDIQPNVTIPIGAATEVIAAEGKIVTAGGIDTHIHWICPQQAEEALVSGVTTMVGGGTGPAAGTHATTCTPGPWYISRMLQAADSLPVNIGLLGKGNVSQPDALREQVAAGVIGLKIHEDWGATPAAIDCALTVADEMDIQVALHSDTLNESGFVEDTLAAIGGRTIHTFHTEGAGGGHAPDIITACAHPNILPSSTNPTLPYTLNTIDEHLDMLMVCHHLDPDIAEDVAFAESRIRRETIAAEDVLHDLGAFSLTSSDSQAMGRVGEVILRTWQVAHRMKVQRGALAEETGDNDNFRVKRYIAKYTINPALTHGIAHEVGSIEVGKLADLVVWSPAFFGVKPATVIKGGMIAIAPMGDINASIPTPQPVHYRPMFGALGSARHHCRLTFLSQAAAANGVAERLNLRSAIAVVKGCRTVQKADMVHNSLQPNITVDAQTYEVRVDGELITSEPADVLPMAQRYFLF

B1: maltose binding protein-UreD fusion protein (MBP-UreD) (natural protein, Klebsiella aerogenes, UniProt Q09063 1-270, looked up)
chain: MLPPLKKGWQATLDLRFHQAGGKTVLASAQHVGPLTVQRPFYPEEETCHLYLLHPPGGIVGGDELTISAHLAPGCHTLITMPGASKFYRSSGAQALVRQQLTLAPQATLEWLPQDAIFFPGANARLFTTFHLCASSRLLAWDLLCLGRPVIGETFSHGTLSNRLEVWVDNEPLLVERLHLQEGELSSIAERPWVGTLLCYPATDALLDGVRDALAPLGLYAGASLTDRLLTVRFLSDDNLICQRVMRDVWQFLRPHLTGKSPVLPRIWLT
Q: Does B1 bind?
A: binds
